Laboratory results taken from patent US20230128688A1, “DIRECTED CONJUGATION TECHNOLOGIES” (KLEO PHARMACEUTICALS, INC., priority 2019, published 2023).

Molecular target: T cell receptor (TCR)/CD3 on effector Jurkat T cells
Assay: cell-based or functional assay

EC50 of T cell activation (NFAT-RE luciferase luminescence in Jurkat effector cells), effector only condition: > 10 nM
EC50 of T cell activation (NFAT-RE luciferase luminescence in Jurkat effector cells), effector+target (Daudi) condition: 0.1 nM
Substance: III-1 (CD20×CD3; rituximab×SP34 scFv) (bispecific antibody)
